One test has as its target p53 DNA binding domain (UniProt P04637 94-312). Kind of test: SPR.
For test [1], the target named is fluorescein-labelled p53DBD (UniProt P04637 94-312, fluorescein label (site not stated)). As to the kind of experiment: fluorescence polarisation. (In general: Fluorescence polarisation rises when a labelled molecule tumbles more slowly, as on binding a larger partner.)

For orientation: Kd means a measure of binding affinity in units of concentration.

Chain of fluorescein-labelled p53DBD (P04637 94-312): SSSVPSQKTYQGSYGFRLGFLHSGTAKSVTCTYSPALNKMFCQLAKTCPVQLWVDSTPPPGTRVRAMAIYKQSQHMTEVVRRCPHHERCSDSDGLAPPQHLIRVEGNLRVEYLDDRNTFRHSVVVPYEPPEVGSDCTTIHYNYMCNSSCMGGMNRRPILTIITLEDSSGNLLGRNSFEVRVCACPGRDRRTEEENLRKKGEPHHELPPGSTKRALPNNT
Chain of p53 DNA binding domain (P04637 94-312): as above

B1: telethonin (natural protein, human, UniProt O15273 1-167, looked up)
chain: MATSELSCEVSEENCERREAFWAEWKDLTLSTRPEEGCSLHEEDTQRHETYHQQGQCQVLVQRSPWLMMRMGILGRGLQEYQLPYQRVLPLPIFTPAKMGATKEEREDTPIQLQELLALETALGGQCVDRQEVAEITKQLPPVVPVSKPGALRRSLSRSMSQEAQRG
Regarding B1, the Kd in the test with p53 DNA binding domain turned out to be 765 ± 30 nM; in test [1], 2200 nM.

The values above are taken from paper PMC3664427 (Circulation research, 2011).
